# Laboratory results from the DeepSol protein solubility set.
# Experiment: soluble on expression in E. coli; label from the status in PepcDB or PDB records
row,Sequence,soluble on expression in E. coli
1,MRGSHHHHHHGSEYPERPVNMVVPFAAGGPTDNVARSLAESMRPTLGETVVVENKGGAGGTIGTTQVARAQPDGYSILLMHAGFSTAPSLYKNPGYEPYTSFEPIGLVVDVPMTIIARGDFPPNNIKELAEYVKKNADKISLANAGIGAASHLCGTMLVEALGVNLLTIPYKGTAPAMNDLLGKQVDLMCDQTTNTTQQITSGKVKAYAVTSLKRVPTLPDLPTMDESGYKGFEVGIWHGMWAPKGTPKPVVDKLVKSLQAGLADPKFQERMKQLGAEVLTNEANPEALQAKVKQQVPQWAELFKKAGVEKQ,soluble
2,MKFKDLRDFVQQLEQRGELKRIQMPISPVLEMTEICDRTLRAKGPALLFENPVGFDIPVLGNLFGTPERVAMGMGAEAVTELREIGKLLAFLKEPEPPKGLKDAWSKLPIFRKVIAMAPKVVKDAPCQEIVIEGDDVDLGMLPVQTCWPGDVAPLITWGLTVTKGPNKERQNLGIYRQQVIGRNKIIMRWLSHRGGALDFRDWCVKHPGEPYPVAVALGADPATILGAVTPVPDSLSEYAFAGLLRGSRTELIKCRGSNLQVPASAEIVLEGVIHPGEMANEGPYGDHTGYYNEVDSFPVLTVERITHRIKPIYHSTYTGRPPDEPAILGVALNEVFVPILQKQFPEIVDFYLPPEGCSYRMAVVTIKKQYPGHAKRVMLGVWSFLRQFMYTKFVIVTDDDINARDWNDVIWAITTRMDPKRDTVMIDNTPIDYLDFASPVSGLGSKMGLDATNKWPGETTREWGRAIVKDEATTRRVDEIWTQLGIDLEHHHHHH,not soluble
3,MADKKLDTQLVNAGRSKKYTLGAVNSVIQRASSLVFDSVEAKKHATRNRANGELFYGRRGTLTHFSLQQAMCELEGGAGCVLFPCGAAAVANSILAFIEQGDHVLMTNTAYEPSQDFCSKILSKLGVTTSWFDPLIGADIVKHLQPNTKIVFLESPGSITMEVHDVPAIVAAVRSVVPDAIIMIDNTWAAGVLFKALDFGIDVSIQAATKYLVGHSDAMIGTAVCNARCWEQLRENAYLMGQMVDADTAYITSRGLRTLGVRLRQHHESSLKVAEWLAEHPQVARVNHPALPGSKGHEFWKRDFTGSSGLFSFVLKKKLNNEELANYLDNFSLFSMAYSWGGYESLILANQPEHIAAIRPQGEIDFSGTLIRLHIGLEDVDDLIADLDAGFARIV,soluble
4,MSKIAIIGATGRAGSQLLEEALRRGHSVTAIARNTAKIGSRAGVVSRDVDVADSAALQAAVAGHDVVISAAHFSSIAANAIIDPVKKAGVKRLLVVGGAGSLLLPGGSKVIDSPGFPEEYKAEASAGGVYLETLRKEQDLDWTFLSPSAEFVEGERTGHFRLGQDDLLVSAEGRSWITFADYAIAMLDEVEKPAHSRQRFTVGYLEHHHHHH,not soluble
5,MMKFSVIVPTYNSEKYITELLNSLAKQDFPKTEFEVVVVDDCSTDQTLQIVEKYRNKLNLKVSQLETNSGGPGKPRNVALKQAEGEFVLFVDSDDYINKETLKDAAAFIDEHHSDVLLIKMKGVNGRGVPQSMFKETAPEVTLLNSRIIYTLSPTKIYRTALLKDNDIYFPEELKSAEDQLFTMKAYLNANRISVLSDKAYYYATKREGEHMSSAYVSPEDFYEVMRLIAVEILNADLEEAHKDQILAEFLNRHFSFSRTNGFSLKVKLEEQPQWINALGDFIQAVPERVDALVMSKLRPLLHYARAKDIDNYRTVEESYRQGQYYRFDIVDGKLNIQFNEGEPYFEGIDIAKPKVKMTAFKFDNHKIVTELTLNEFMIGEGHYDVRLKLHSRNKKHTMYVPLSVNANKQYRFNIMLEDIKAYLPKEKIWDVFLEVQIGTEVFEVRVGNQRNKYAYTAETSALIHLNNDFYRLTPYFTKDFNNISLYFTAITLTDSISMKLKGKNKIILTGLDRGYVFEEGMASVVLKDDMIMGMLSQTSENEVEILLSKDIKKRDFKNIVKLNTAHMTYSLKLEHHHHHH,soluble
6,SLGSDADSAGSLIQPMQIPGIIMPGLRRLTIRDLLAQGRTSSNALEYVREEVFTNNADVVAEKALKPESDITFSKQTANVKTIAHWVQASRQVMDDAPMLQSYINNRLMYGLALKEEGQLLNGDGTGDNLEGLNKVATAYDTSLNATGDTRADIIAHAIYQVTESEFSASGIVLNPRDWHNIALLKDNEGRYIFGGPQAFTSNIMWGLPVVPTKAQAAGTFTVGGFDMASQVWDRMDATVEVSREDRDNFVKNMLTILCEERLALAHYRPTAIIKGTFSSGS,soluble
7,MIGLITTLYFVAKTAFIKLKVAVYKDKAKGSGNKNTIVIYSEGKRYWNVFLPICNEFEEHQKELVFYTSSEDDPVFEQHYTYVKPEYIGKGNKAFARLNMLEADICLMTTPGLDVYQLKRSKHVRHYSHILHALDDATSYRLFGLDYFDSVLLSGEYQVKGIRELESLRNLPPKNLRVVGCPYLDVLSEKIKNLPEKSSDFTVLIAPSWGASGILSKYGEQLITPLVETGWNIIIRPHPQSKTSEPDMLKRLEGKYKDVANFVWDYNSENIDSLSKADIMISDFSSVIFDYCFLFDKPFLYCNNEFDHRPYDSGDLKETPWKFSVLKEIGVELNSNSFDHIKEIISEACKSETLKENRLKAKDTAWQNRGCAGKAVYDFLTEIKTI,not soluble
8,SRILVSIGESFGTSEKFQKINQMVCNSDRVLKRSAEGSNPPKPLKK,soluble
9,MSLAAVPAPDPGPDAGAIWHYGDPLGEQRAGQADAVLVDRSHRAVLTLDGGDRQTWLHSISTQHVSDLPEGASTQNLSLDGQGRVEDHWIQTELGGTTYLDTEPWRGEPLLAYLRKMVFWSMVTPRAADMAVLSLLGPRLAEERVLDALGLDVLPAEWLAVPLAGGGIVRRMPDGLAGQIELDVVVKRGDRADWQRRLTQAGVRPAGIWAYEAHRVAHRVPARRPRLGVDTDERTIPHEVGWIGGPGAGAVHLNKGCYRGQETVARVHNLGRPPRMLVLLHLDESVQRPSTGDAVLAGGRTVGRLGTVVEHVELGPVALALLKRGLPGDTALVTGPEAEVAAVIDVDSLPPADDVGAGRRAVERLRGGIREGHHHHHH,soluble
10,MAHHHHHHMKEGDFEGAEERFIKAIEEIEKFPEGKVDPKLVEQMRELLEDAREMKDGRFKEIQEFIQEQFAVNETERLPTAHEFYGDVDEQQHPFVSRLPNDGECSALSMPQSNTNPVQWSEHSNSMSLSLFPSQVNGRSSEASNSQPVQHVVARRKPKPLQKQKALEVESSGNVSTGSDMKRFRAES,soluble
11,MSLPREKVVRVWDEREVVYSPKRWRILWEKREKALKIMELLKDFDPHVYGSVARGDVRRDSDIDIVIPYRVPSYLIELALGDLIQRRRIVMATPWHLIKGHIEIDEETTVTFFLVDPTDRELEFYKWGGMLDLWGVKTKQRVPGVNKKLILIIPTDKGHIEREVVGREAEVAKILGVSVDIVEERVKVLTRRDRIGRTGIYLDEEVPDWKSFEEFLKELADRDPNIRRRVRESLEGHHHHHH,not soluble
12,MGAIKPLEDWLKNLGVKSDIRPNLLAGMEINDQICSVPLQTSNIGILERSKLFQAAGITEPPKTWEELRAVVKKSTIDKNGDHRPEQYGMLLTFGKGGWTVFSWLPFLFAAQGEIITDHYPSLSNPGAITALQFW,not soluble
13,MGCLATPVRTEVLKALEYSQRICALRSCSRFIRSPRAMFKRQHTDADVLEHPVSASAPATWSLIGEHTDHAGGVVLMSVAQLRTHVEATTRADDIVSVDYYIADPEMPVQQSAISLSDVFEWQNSLSGDHEPLESP,not soluble
14,MGSDKIHHHHHHMLLTRTQIRRLVYAHGREILEHDHMAIERVCYQHGVVTTFAHSIRVACLSVWLADRLHLWNRVDLRSLIRAALLHDYFLYDWHDWDNGTHRLHGFTHGETAMRNAIRDFKLNQIERDSIEHHMFPLTPYPPKYIEGYLVTAADKISATKETLSFDRFDKPASEQPTDRS,not soluble
15,MSVLEGINSKALKTGNAGKNLKFKKIGDLPPPSPSPNTFRIYSMRFCPAAQRALIYASVKKIPSEVININLQQKPDWYFTKNYKGQVPTLEHAEGKKLVIESAVIPEYLDDIFPETKILPSDPYEKVQQKLLLERLSDQLTPAFGRVFRAIKNPEELKEKFESILKAFEEAESLLEGAFYSGTSSPGFVDYLIYPSFQRVYWLTFLLEIFPLPSDNFPGPGYPKLSQWFKAITAIPEVAAASQSTENGVGSCKEYMKGLPYFDYGL,not soluble
16,MTRDLAPALQALSPLLGSWAGRGAGKYPTIRPFEYLEEVVFAHVGKPFLTYTQQTRAVADGKPLHSETGYLRVCRPGCVELVLAHPSGITEIEVGTYSVTGDVIELELSTRADGSIGLAPTAKEVTALDRSYRIDGDELSYSLQMRAVGQPLQDHLAAVLHRQRRSHHHHHH,soluble
17,MGHHHHHHSHMQEQVLYPLEAEVTMVTSFQDADPMGVIYHGNFFRYFEEARRVLMEKIQYGYRDMQDSGYMWPIIDTRVKYVKAIPFNHTIRITAQLTEWENRLRVDYVIYDAETNQRMCKAHTTQVAVSIEKQEMCFVSPAVFLDKVEQWHNHGSLN,soluble
18,MLSEETIRVIKSTVPLLKEHGTEITARMYELLFSKYPKTKELFAGASEEQPKKLANAIIAYATYIDRLEELDNAISTIARSHVRRNVKPEHYPLVKECLLQAIEEVLNPGEEVLKAWEEAYDFLAKTLITLEKKLYSQP,soluble
19,MKNVIACISSPRRVQSICDYAIWAVRRLGSELELLHVVEREQDAVPIADLSGGIWMGTQETLLKELAELDERRQQLAQEQGRQLLQAATERAREAGIQGLAGLARQGYLVDVLLELEDDARLFVMGQHDRPTKPSRLLPDQHLEAAVRALHRPVLVAG,not soluble
20,MGLKDWIEAPAAAVVPAKRSKLNWLRGAAARLTTPLLPDDYLHLANPLWSARELRGQIVEVRAETADSATIVIKPGWGFDFDYEPGQYIGIGLHIDGRWHWRSYSLTSPPNWDDKLISIAVKAMPEGFLSSHLVNGVPSGTIVRLATPTGNFALPDPPPERILFLTAGSGITPVMAMLRTMNRRGQLPDVFHVHSAPTDADVMFADELTQLHEEHDDFRCKIQLTRSQGKFALSSLDEVCPDWRERQTWACGPLPMLDEIETLWRDEGIENKLHLERFAVSRADTSGEGGTVTFAKADKTVSVDGATTLLEAGEQVGALMPFGCRMGICQTCVVPILAGHAIDLRSGKQHAEGDRVQTCISAAAGDCTLDA,not soluble
21,MGSDKIHHHHHHGSSESAEYQQTNHYNTPKGFMNDIQTIFKGSDGYYHMYYLLNSNYKLANDGTEWYHVRTKDWEHFENLGVAIPKFVNGWSAVATGSIFQNSNQFFKDLPTSAIVAYFTSYTDTGQHQYVAYSLDNGSSYQPYNNGKPVMISQTKEQNARDPYIWYDSNSKRLMMYLAEGDKIGIYASSDGKNWAYQGATVLNQYTLGGKDLGLVECPNLKTFYDSATNTTKHVLFFGANGYQYGSTTGTYYMIGHLDTQGNFVPEQNAERLDQGSDYYGANFYQESDCVVKSIAWMGNWDYLQGQILDDQGQESKHLGSVSSARDITMVKRDDKYVLESYLKNNNSRTNTVSYQSNADTAKLADDGYHKTLLSVSRWHSQELSLKFQANAATLNGHIRLIFKQADAQVSLDYNTDNGYYEVKRTSSKIIGSQKVNYERSYVVDSHWNGQKELNIYLVADKSSLEFALPNGQTYSMVKLSTASDMDIVIETSGSNRLQADLANLET,not soluble
22,MEVEIKFKIKLEDFLHTLNTFNPEFVRYEEQEDVYFEVPRPKLLRIRGVHNLKKYYLTFKEILDENNEEFYEVEFEIGDFEKAVEVFKRLGFKIQATIKKKRWVYKLNGVTLEVNRVEGIGDFVDIEVISDSPEEAKEKIWEVAKMLGLKEEDVEPRLYLELINELSGRSSLEHHHHHH,soluble
